{"source": "paper PMC3384303", "about": "(Nucleic Acids Research, 2012)", "proteins": {"B1": {"name": "SsbB (natural protein, Bacillus subtilis, UniProt C0SPB6 1-113, looked up)", "chain": "MFNQVMLVGRLTKDPDLRYTSAGAAVAHVTLAVNRSFKNASGEIEADYVNCTLWRKTAENTALYCQKGSLVGVSGRIQTRSYENEEGVNVYVTEVLADTVRFMDPKPREKAAD"}}, "biological_target": "the molecule itself", "assay": "crystal structure"}
{"protein": "B1", "values": [{"measurement": "stoichiometry N", "value": 4}]}
